# B1: human recombinant plasma PAF acetylhydrolase (Homo sapiens) (protein)
# chain: FDWQYINPVAHMKSSAWVNKIQVLMAAASFGQTKIPRGNGPYSVGCTDLMFDHTNKGTFLRLYYPSQDNDRLDTLWIPNKEYFWGLSKFLGTHWLMGNILRLLFGSMTTPANWNSPLRPGEKYPLVVFSHGLGAFRTLYSAIGIDLASHGFIVAAVEHRDRSASATYYFKDQSAAEIGDKSWLYLRTLKQEEETHIRNEQVRQRAKECSQALSLILDIDHGKPVKNALDLKFDMEQLKDSIDREKIAVIGHSFGGATVIQTLSEDQRFRCGIALDAWMFPLGDEVYSRIPQPLFFINSEYFQYPANIIKMKKCYSPDKERKMITIRGSVHQNFADFTFATGKIIGHMLKLKGDIDSNVAIDLSNKASLAFLQKHLGLHKDFDQWDCLIEGDDENLIPGTNINTTNQHIMLQNSSGIEKYN
# notes: commercial recombinant protein (Cayman Chemical)
# Substrate: [H][C@@](COCCCCCCCCCCCCCCCC)(COP(=O)([O-])OCC[N+](C)(C)C)SC(C)=O
# Test: purified protein
# Format: biochemical, Homo sapiens
# Details: PAF acetylhydrolase assay kit; measured as comparison to SsE
protein,measurement,value
B1,Km,8.0 µM
same,kcat,15.4 s⁻¹
